Molecular target: T1, focal adhesion kinase (FAK) (UniProt Q05397 2-1052)
T1 construct: Endogenous protein in lysates of SNU449 cell lines
Assay: physical association in SNU449 cell lysates with or without tiarellic acid (FIG. 10; method not described)

T1 sequence (Q05397 2-1052 limits assumed): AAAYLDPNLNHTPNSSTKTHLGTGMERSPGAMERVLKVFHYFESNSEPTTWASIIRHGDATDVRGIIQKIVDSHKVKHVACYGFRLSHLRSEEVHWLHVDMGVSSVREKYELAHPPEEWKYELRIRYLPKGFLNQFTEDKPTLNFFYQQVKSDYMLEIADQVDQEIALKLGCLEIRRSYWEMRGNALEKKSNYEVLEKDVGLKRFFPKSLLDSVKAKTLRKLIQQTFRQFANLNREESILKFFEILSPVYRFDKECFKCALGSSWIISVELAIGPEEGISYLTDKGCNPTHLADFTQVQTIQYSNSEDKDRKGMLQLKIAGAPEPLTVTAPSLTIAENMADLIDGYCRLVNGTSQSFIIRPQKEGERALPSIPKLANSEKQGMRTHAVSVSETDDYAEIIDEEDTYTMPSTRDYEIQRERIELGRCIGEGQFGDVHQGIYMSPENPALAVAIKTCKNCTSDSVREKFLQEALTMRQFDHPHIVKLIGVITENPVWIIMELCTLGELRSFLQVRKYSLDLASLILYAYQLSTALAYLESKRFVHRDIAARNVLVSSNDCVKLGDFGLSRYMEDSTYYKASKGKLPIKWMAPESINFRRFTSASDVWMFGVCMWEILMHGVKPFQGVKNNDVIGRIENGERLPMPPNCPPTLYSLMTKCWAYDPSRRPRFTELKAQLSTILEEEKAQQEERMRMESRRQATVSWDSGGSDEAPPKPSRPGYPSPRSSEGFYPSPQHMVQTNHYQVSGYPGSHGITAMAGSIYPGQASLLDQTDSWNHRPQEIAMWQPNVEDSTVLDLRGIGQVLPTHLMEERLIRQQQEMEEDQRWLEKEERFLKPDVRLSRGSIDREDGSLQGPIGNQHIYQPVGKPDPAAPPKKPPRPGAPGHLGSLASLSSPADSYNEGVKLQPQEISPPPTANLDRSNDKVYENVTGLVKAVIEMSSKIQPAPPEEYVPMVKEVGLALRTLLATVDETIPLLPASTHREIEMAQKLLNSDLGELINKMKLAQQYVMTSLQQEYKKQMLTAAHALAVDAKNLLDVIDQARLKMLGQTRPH

- binding result: binds
B1: p130Cas (other, UniProt P56945 1-870, looked up)
chain: MNHLNVLAKALYDNVAESPDELSFRKGDIMTVLEQDTQGLDGWWLCSLHGRQGIVPGNRLKILVGMYDKKPAGPGPGPPATPAQPQPGLHAPAPPASQYTPMLPNTYQPQPDSVYLVPTPSKAQQGLYQVPGPSPQFQSPPAKQTSTFSKQTPHHPFPSPATDLYQVPPGPGGPAQDIYQVPPSAGMGHDIYQVPPSMDTRSWEGTKPPAKVVVPTRVGQGYVYEAAQPEQDEYDIPRHLLAPGPQDIYDVPPVRGLLPSQYGQEVYDTPPMAVKGPNGRDPLLEVYDVPPSVEKGLPPSNHHAVYDVPPSVSKDVPDGPLLREETYDVPPAFAKAKPFDPARTPLVLAAPPPDSPPAEDVYDVPPPAPDLYDVPPGLRRPGPGTLYDVPRERVLPPEVADGGVVDSGVYAVPPPAEREAPAEGKRLSASSTGSTRSSQSASSLEVAGPGREPLELEVAVEALARLQQGVSATVAHLLDLAGSAGATGSWRSPSEPQEPLVQDLQAAVAAVQSAVHELLEFARSAVGNAAHTSDRALHAKLSRQLQKMEDVHQTLVAHGQALDAGRGGSGATLEDLDRLVACSRAVPEDAKQLASFLHGNASLLFRRTKATAPGPEGGGTLHPNPTDKTSSIQSRPLPSPPKFTSQDSPDGQYENSEGGWMEDYDYVHLQGKEEFEKTQKELLEKGSITRQGKSQLELQQLKQFERLEQEVSRPIDHDLANWTPAQPLAPGRTGGLGPSDRQLLLFYLEQCEANLTTLTNAVDAFFTAVATNQPPKIFVAHSKFVILSAHKLVFIGDTLSRQAKAADVRSQVTHYSNLLCDLLRGIVATTKAAALQYPSPSAAQDMVERVKELGHSTQQFRRVLGQLAAA
notes: Endogenous protein in lysates of SNU449 cell lines

From patent US20100081638A1 (KOREA RESEARCH INSTITUTE OF BIOSCIENCE AND BIOTECHNOLOGY, published 2010)
